These results are taken from the supplement of paper PMC5998384.

In series [1] the test system is HeLa Kyoto. As to the kind of experiment: solubility in G1/S (NP-40 vs SDS abundance) (log2 ratio); higher = more soluble. The conditions noted are these: cell cycle stage: G1/S.
Series [2] relates to HeLa Kyoto. The series can be described thus: melting temperature (median over replicates), in situ; higher = more thermally stable.
The test system of series [3] is HeLa Kyoto. The series can be described thus: solubility change mitosis vs G1/S (difference of NP-40 vs SDS log2 ratios) (log2 ratio difference); higher = more soluble in mitosis.
In series [4] the test system is HeLa Kyoto. The series can be described thus: thermal stability score vs G1/S (z-score of summed log2 fold changes over temperatures); higher = more thermally stable than in G1/S.
Where [5] appears, read: cell cycle stage: early G1 (4.5 h after nocodazole release).
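Wherever melting temperature (median over replicates), in situ is given: HeLa Kyoto cells synchronized by double thymidine or nocodazole block, proteins quantified by TMT10plex mass spectrometry, three independent biological replicates.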
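Wherever solubility change mitosis vs G1/S (difference of NP-40 vs SDS log2 ratios) is given: synchronized HeLa Kyoto cells (double thymidine block for G1/S, nocodazole release for mitosis), protein amounts in NP-40 versus SDS lysates quantified by mass spectrometry, three biological replicates.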
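Wherever solubility in G1/S (NP-40 vs SDS abundance) is given: HeLa Kyoto cells arrested at G1/S by double thymidine block, proteins quantified by TMT10plex mass spectrometry in mild NP-40 versus SDS extracts, three biological replicates.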
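Wherever thermal stability score vs G1/S (z-score of summed log2 fold changes over temperatures) is given: synchronized HeLa Kyoto cells, proteins quantified by TMT10plex mass spectrometry, three biological replicates, mitosis taken 0.5 h after nocodazole release, G1/S directly after double thymidine block.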

“MAAETLLSSLLGLLLLGLLLPASLTGGVGSLNLEELSEMRYGIEILPLPVMGGQSQSSDVVIVSSKYKQRYECRLPAGAIHFQREREEETPAYQGPGIPELLSPMRDAPCLLKTKDWWTYEFCYGRHIQQYHMEDSEIKGEVLYLGYYQSAFDWDDETAKASKQHRLKRYHSQTYGNGSKCDLNGRPREAEVRFLCDEGAGISGDYIDRVDEPLSCSYVLTIRTPRLCPHPLLRPPPSAAPQAILCHPSLQPEEYMAYVQRQADSKQYGDKIIEELQDLGPQVWSETKSGVAPQKMAGASPTKDDSKDSDFWKMLNEPEDQAPGGEEVPAEEQDPSPEAADSASGAPNDFQNNVQVKVIRSPADLIRFIEELKGGTKKGKPNIGQEQPVDDAAEVPQREPEKERGDPERQREMEEEEDEDEDEDEDEDERQLLGEFEKELEGILLPSDRDRLRSEVKAGMERELENIIQETEKELDPDGLKKESERDRAMLALTSTLNKLIKRLEEKQSPELVKKHKKKRVVPKKPPPSPQPTEEDPEHRVRVRVTKLRLGGPNQDLTVLEMKRENPQLKQIEGLVKELLEREGLTAAGKIEIKIVRPWAEGTEEGARWLTDEDTRNLKEIFFNILVPGAEEAQKERQRQKELESNYRRVWGSPGGEGTGDLDEFDF [OS9]”: the “solubility in G1/S (log2)” value in series [1] amounted to 0.241. Also, the melting temperature in series [2] (cell cycle stage: G1/S) is 54.4 °C; in series [2] (cell cycle stage: mitosis), 53.8 °C. The “solubility change mitosis (log2)” value in series [3] was -0.128. Further, the values for the thermal stability score in series [4] (setting [5]) and in series [4] (cell cycle stage: mitosis) were 0.21 and -0.468, respectively.

As to “MSDLLLLGLIGGLTLLLLLTLLAFAGYSGLLAGVEVSAGSPPIRNVTVAYKFHMGLYGETGRLFTESCSISPKLRSIAVYYDNPHMVPPDKCRCAVGSILSEGEESPSPELIDLYQKFGFKVFSFPAPSHVVTATFPYTTILSIWLATRRVHPALDTYIKERKLCAYPRLEIYQEDQIHFMCPLARQGDFYVPEMKETEWKWRGLVEAIDTQVDGTGADTMSDTSSVSLEVSPGSRETSAATLSPGASSRGWDDGDTRSEHSYSESGASGSSFEELDLEGEGPLGESRLDPGTEPLGTTKWLWEPTAPEKGKE [TEX264]”, the “solubility in G1/S (log2)” value in series [1] is -0.0622. Besides, the melting temperature in series [2] (cell cycle stage: G1/S) and in series [2] (cell cycle stage: mitosis) was 51.2 °C throughout. The “solubility change mitosis (log2)” value in series [3] was -0.257. Besides, the thermal stability score in series [4] (setting [5]) was 0.0754; in series [4] (cell cycle stage: mitosis), -0.347.

In the case of “MASIMEGPLSKWTNVMKGWQYRWFVLDYNAGLLSYYTSKDKMMRGSRRGCVRLRGAVIGIDDEDDSTFTITVDQKTFHFQARDADEREKWIHALEETILRHTLQLQGLDSGFVPSVQDFDKKLTEADAYLQILIEQLKLFDDKLQNCKEDEQRKKIETLKETTNSMVESIKHCIVLLQIAKDQSNAEKHADGMISTINPVDAIYQPSPLEPVISTMPSQTVLPPEPVQLCKSEQRPSSLPVGPVLATLGHHQTPTPNSTGSGHSPPSSSLTSPSHVNLSPNTVPEFSYSSSEDEFYDADEFHQSGSSPKRLIDSSGSASVLTHSSSGNSLKRPDTTESLNSSLSNGTSDADLFDSHDDRDDDAEAGSVEEHKSVIMHLLSQVRLGMDLTKVVLPTFILERRSLLEMYADFFAHPDLFVSISDQKDPKDRMVQVVKWYLSAFHAGRKGSVAKKPYNPILGEIFQCHWTLPNDTEENTELVSEGPVPWVSKNSVTFVAEQVSHHPPISAFYAECFNKKIQFNAHIWTKSKFLGMSIGVHNIGQGCVSCLDYDEHYILTFPNGYGRSILTVPWVELGGECNINCSKTGYSANIIFHTKPFYGGKKHRITAEIFSPNDKKSFCSIEGEWNGVMYAKYATGENTVFVDTKKLPIIKKKVRKLEDQNEYESRSLWKDVTFNLKIRDIDAATEAKHRLEERQRAEARERKEKEIQWETRLFHEDGECWVYDEPLLKRLGAAKH [OSBPL9]”, the “solubility in G1/S (log2)” value in series [1] was -0.0574. Also, the figures for the melting temperature in series [2] (cell cycle stage: G1/S) and in series [2] (cell cycle stage: mitosis) were 48.7 °C and 49.2 °C, respectively. Further, in series [3], the “solubility change mitosis (log2)” value was -0.142. For the same sequence, the thermal stability score worked out at 0.00752 in series [4] (setting [5]) and 0.954 in series [4] (cell cycle stage: mitosis).

With “MAAETQTLNFGPEWLRALSSGGSITSPPLSPALPKYKLADYRYGREEMLALFLKDNKIPSDLLDKEFLPILQEEPLPPLALVPFTEEEQRNFSMSVNSAAVLRLTGRGGGGTVVGAPRGRSSSRGRGRGRGECGFYQRSFDEVEGVFGRGGGREMHRSQSWEERGDRRFEKPGRKDVGRPNFEEGGPTSVGRKHEFIRSESENWRIFREEQNGEDEDGGWRLAGSRRDGERWRPHSPDGPRSAGWREHMERRRRFEFDFRDRDDERGYRRVRSGSGSIDDDRDSLPEWCLEDAEEEMGTFDSSGAFLSLKKVQKEPIPEEQEMDFRPVDEGEECSDSEGSHNEEAKEPDKTNKKEGEKTDRVGVEASEETPQTSSSSARPGTPSDHQSQEASQFERKDEPKTEQTEKAEEETRMENSLPAKVPSRGDEMVADVQQPLSQIPSDTASPLLILPPPVPNPSPTLRPVETPVVGAPGMGSVSTEPDDEEGLKHLEQQAEKMVAYLQDSALDDERLASKLQEHRAKGVSIPLMHEAMQKWYYKDPQGEIQGPFNNQEMAEWFQAGYFTMSLLVKRACDESFQPLGDIMKMWGRVPFSPGPAPPPHMGELDQERLTRQQELTALYQMQHLQYQQFLIQQQYAQVLAQQQKAALSSQQQQQLALLLQQFQTLKMRISDQNIIPSVTRSVSVPDTGSIWELQPTASQPTVWEGGSVWDLPLDTTTPGPALEQLQQLEKAKAAKLEQERREAEMRAKREEEERKRQEELRRQQEEILRRQQEEERKRREEEELARRKQEEALRRQREQEIALRRQREEEERQQQEEALRRLEERRREEEERRKQEELLRKQEEEAAKWAREEEEAQRRLEENRLRMEEEAARLRHEEEERKRKELEVQRQKELMRQRQQQQEALRRLQQQQQQQQLAQMKLPSSSTWGQQSNTTACQSQATLSLAEIQKLEEERERQLREEQRRQQRELMKALQQQQQQQQQKLSGWGNVSKPSGTTKSLLEIQQEEARQMQKQQQQQQQHQQPNRARNNTHSNLHTSIGNSVWGSINTGPPNQWASDLVSSIWSNADTKNSNMGFWDDAVKEVGPRNSTNKNKNNASLSKSVGVSNRQNKKVEEEEKLLKLFQGVNKAQDGFTQWCEQMLHALNTANNLDVPTFVSFLKEVESPYEVHDYIRAYLGDTSEAKEFAKQFLERRAKQKANQQRQQQQLPQQQQQQPPQQPPQQPQQQDSVWGMNHSTLHSVFQTNQSNNQQSNFEAVQSGKKKKKQKMVRADPSLLGFSVNASSERLNMGEIETLDDY [GIGYF2]”, in series [1], the “solubility in G1/S (log2)” value is -0.0985. Further, the figures for the melting temperature in series [2] (cell cycle stage: G1/S) and in series [2] (cell cycle stage: mitosis) were 49.4 °C and 49.8 °C, respectively. In addition, the “solubility change mitosis (log2)” value in series [3] is -0.00842. For the same sequence, the results for the thermal stability score in series [4] (setting [5]) and in series [4] (cell cycle stage: mitosis) were 0.406 and 0.959, respectively.

In the case of “MATKGGTVKAASGFNAMEDAQTLRKAMKGLGTDEDAIISVLAYRNTAQRQEIRTAYKSTIGRDLIDDLKSELSGNFEQVIVGMMTPTVLYDVQELRRAMKGAGTDEGCLIEILASRTPEEIRRISQTYQQQYGRSLEDDIRSDTSFMFQRVLVSLSAGGRDEGNYLDDALVRQDAQDLYEAGEKKWGTDEVKFLTVLCSRNRNHLLHVFDEYKRISQKDIEQSIKSETSGSFEDALLAIVKCMRNKSAYFAEKLYKSMKGLGTDDNTLIRVMVSRAEIDMLDIRAHFKRLYGKSLYSFIKGDTSGDYRKVLLVLCGGDD [ANXA4]”, the “solubility in G1/S (log2)” value in series [1] turned out to be 0.48. Also, the melting temperature in series [2] (cell cycle stage: G1/S) turned out to be 50.1 °C; in series [2] (cell cycle stage: mitosis) it was 50.2 °C. For the same sequence, the “solubility change mitosis (log2)” value in series [3] came to 0.0251. For the same sequence, the thermal stability score in series [4] (setting [5]) came out at 5.77; in series [4] (cell cycle stage: mitosis), 4.03.
